Results as given in paper PMC2653023, “Improving the functional expression of a Bacillus licheniformis laccase by random and site-directed mutagenesis” (BMC Biotechnology, 2009).

Substrate: CCn1c(=NN=c2sc3cc(S(=O)(=O)O)ccc3n2CC)sc2cc(S(=O)(=O)O)ccc21
Test: purified protein
Format: biochemical, Bacillus licheniformis
Conditions: 0.1 M citrate/phosphate buffer, pH 4.0, room temperature, 5-500 μM ABTS, co-substrate O2, free enzyme

| Protein | Km [µM] |
| --- | --- |
| CotA (Bacillus licheniformis DSM 13 = ATCC 14580) (protein, untagged full-length CotA in pET22b+ (NdeI/EcoRI, own stop codon), recombinant from E. coli BL21(DE3), heat step and Q-Sepharose, ~65 kDa; primer-encoded N-terminus MKLEKFVDR, C-terminus EVTDVRHQ) MKLEKFVDRLPIPQVLQPQSKSKEMTYYEVTMKEFQQQLHRDLPPTRLFGYNGVYPGPTFEVQKHEKVAVKWLNKLPDRHFLPVDHTLHDDGHHEHEVKTVVHLHGGCTPADSDGYPEAWYTKDFHAKGPFFEREVYEYPNEQDATALWYHDHAMAITRLNVYAGLVGLYFIRDREERSLNLPKGEYEIPLLIQDKSFHEDGSLFYPRQPDNPSPDLPDPSIVPAFCGDTILVNGKVWPFAELEPRKYRFRILNASNTRIFELYFDHDITCHQIGTDGGLLQHPVKVNELVIAPAERCDIIVDFSRAEGKTVTLKKRIGCGGQDADPDTDADIMQFRISKPLKQKDTSSLPRILRKRPFYRRHKINALRNLSLGAAVDQYGRPVLLLNNTKWHEPVTETPALGSTEIWSIINAGRAIHPIHLHLVQFMILDHRPFDIERYQENGELVFTGPAVPPAPNEKGLKDTVKVPPGSVTRIIATFAPYSGRYVWHCHILEHEDYDMMRPLEVTDVRHQ | 6.5 ± 0.2 |
| CotA (Bacillus licheniformis DSM 13 = ATCC 14580; D500G/K316N) (protein, untagged full-length CotA in pET22b+ (NdeI/EcoRI, own stop codon), recombinant from E. coli BL21(DE3), heat step and Q-Sepharose, ~65 kDa; primer-encoded N-terminus MKLEKFVDR, C-terminus EVTDVRHQ) MKLEKFVDRLPIPQVLQPQSKSKEMTYYEVTMKEFQQQLHRDLPPTRLFGYNGVYPGPTFEVQKHEKVAVKWLNKLPDRHFLPVDHTLHDDGHHEHEVKTVVHLHGGCTPADSDGYPEAWYTKDFHAKGPFFEREVYEYPNEQDATALWYHDHAMAITRLNVYAGLVGLYFIRDREERSLNLPKGEYEIPLLIQDKSFHEDGSLFYPRQPDNPSPDLPDPSIVPAFCGDTILVNGKVWPFAELEPRKYRFRILNASNTRIFELYFDHDITCHQIGTDGGLLQHPVKVNELVIAPAERCDIIVDFSRAEGKTVTLKNRIGCGGQDADPDTDADIMQFRISKPLKQKDTSSLPRILRKRPFYRRHKINALRNLSLGAAVDQYGRPVLLLNNTKWHEPVTETPALGSTEIWSIINAGRAIHPIHLHLVQFMILDHRPFDIERYQENGELVFTGPAVPPAPNEKGLKDTVKVPPGSVTRIIATFAPYSGRYVWHCHILEHEDYGMMRPLEVTDVRHQ | 8.4 ± 0.2 |
| CotA (Bacillus licheniformis DSM 13 = ATCC 14580; D500G) (protein, untagged full-length CotA in pET22b+ (NdeI/EcoRI, own stop codon), recombinant from E. coli BL21(DE3), heat step and Q-Sepharose, ~65 kDa; primer-encoded N-terminus MKLEKFVDR, C-terminus EVTDVRHQ) MKLEKFVDRLPIPQVLQPQSKSKEMTYYEVTMKEFQQQLHRDLPPTRLFGYNGVYPGPTFEVQKHEKVAVKWLNKLPDRHFLPVDHTLHDDGHHEHEVKTVVHLHGGCTPADSDGYPEAWYTKDFHAKGPFFEREVYEYPNEQDATALWYHDHAMAITRLNVYAGLVGLYFIRDREERSLNLPKGEYEIPLLIQDKSFHEDGSLFYPRQPDNPSPDLPDPSIVPAFCGDTILVNGKVWPFAELEPRKYRFRILNASNTRIFELYFDHDITCHQIGTDGGLLQHPVKVNELVIAPAERCDIIVDFSRAEGKTVTLKKRIGCGGQDADPDTDADIMQFRISKPLKQKDTSSLPRILRKRPFYRRHKINALRNLSLGAAVDQYGRPVLLLNNTKWHEPVTETPALGSTEIWSIINAGRAIHPIHLHLVQFMILDHRPFDIERYQENGELVFTGPAVPPAPNEKGLKDTVKVPPGSVTRIIATFAPYSGRYVWHCHILEHEDYGMMRPLEVTDVRHQ | 9.5 ± 0.2 |
| CotA (Bacillus licheniformis DSM 13 = ATCC 14580; K316N) (protein, untagged full-length CotA in pET22b+ (NdeI/EcoRI, own stop codon), recombinant from E. coli BL21(DE3), heat step and Q-Sepharose, ~65 kDa; primer-encoded N-terminus MKLEKFVDR, C-terminus EVTDVRHQ) MKLEKFVDRLPIPQVLQPQSKSKEMTYYEVTMKEFQQQLHRDLPPTRLFGYNGVYPGPTFEVQKHEKVAVKWLNKLPDRHFLPVDHTLHDDGHHEHEVKTVVHLHGGCTPADSDGYPEAWYTKDFHAKGPFFEREVYEYPNEQDATALWYHDHAMAITRLNVYAGLVGLYFIRDREERSLNLPKGEYEIPLLIQDKSFHEDGSLFYPRQPDNPSPDLPDPSIVPAFCGDTILVNGKVWPFAELEPRKYRFRILNASNTRIFELYFDHDITCHQIGTDGGLLQHPVKVNELVIAPAERCDIIVDFSRAEGKTVTLKNRIGCGGQDADPDTDADIMQFRISKPLKQKDTSSLPRILRKRPFYRRHKINALRNLSLGAAVDQYGRPVLLLNNTKWHEPVTETPALGSTEIWSIINAGRAIHPIHLHLVQFMILDHRPFDIERYQENGELVFTGPAVPPAPNEKGLKDTVKVPPGSVTRIIATFAPYSGRYVWHCHILEHEDYDMMRPLEVTDVRHQ | 10.0 ± 0.3 |
